Assay results: paper PMC5146272, “Structure of the RBM7–ZCCHC8 core of the NEXT complex reveals connections to splicing factors” (Nature Communications, 2016)
Blank lines part the entries; values can stand above or below the binder they belong to.

Key:
RBM7 1-98 (RRM) = target: T1, RBM7 1-98 (RRM) (Homo sapiens, UniProt Q9Y580 1-98); experiment: fluorescence anisotropy; KD value only in inset of the figure, not in material; 20 mM Tris/HCl pH 7.5, 150 mM NaCl, 2 mM DTT, 20 °C, 10 nM RNA, 50 µl; conditions: protein: recombinant; label: 5'-6-FAM; single strand
T1 sequence: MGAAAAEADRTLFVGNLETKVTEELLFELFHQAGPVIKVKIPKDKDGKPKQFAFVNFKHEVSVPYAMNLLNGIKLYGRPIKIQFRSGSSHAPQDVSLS

[1] = target: T2, RBM7 1-98 (RRM);ZCCHC8Pro (proline-rich segment) (Homo sapiens;Homo sapiens, UniProt Q9Y580;Q6NZY4 1-98;285-324, |); experiment: fluorescence anisotropy; affinity stated similar to RBM7 alone; KD value only in figure inset; 20 mM Tris/HCl pH 7.5, 150 mM NaCl, 2 mM DTT, 20 °C, 10 nM RNA, 50 µl; conditions: protein: recombinant;recombinant; tags: ;; copies: 1;1; label: 5'-6-FAM; single strand
T2 sequence 1: T1 sequence
T2 sequence 2: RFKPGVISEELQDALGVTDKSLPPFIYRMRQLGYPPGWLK

[2] = target: T3, RBM7^1–137 (Z-tagged RBM7, residues 1–137) (human, UniProt Q9Y580 1-137); experiment: MST; 30 nM ZCCHC8^Pro-(GS)3-eYFP constant, unlabelled RBM7 1-137 titrated from 0.2 nM to 6.0 μM; 50 mM Tris/HCl pH 7.4, 150 mM NaCl, 10 mM MgCl2, 0.05% Tween 20; temperature jump analysis; triplicates; conditions: both partners purified
T3 construct: source: bacterial cells, in lysate (pull-downs); purified (MST)
T3 sequence (looked up): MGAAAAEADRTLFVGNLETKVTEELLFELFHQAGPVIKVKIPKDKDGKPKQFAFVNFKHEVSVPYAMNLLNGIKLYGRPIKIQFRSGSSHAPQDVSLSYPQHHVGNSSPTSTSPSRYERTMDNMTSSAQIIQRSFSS

Binder: UUUUUUUU (ssRNA) [U8 RNA]
binding result (RBM7 1-98 (RRM)): binds
binding result [1]: binds

Kd [2]: 28 nM
B1: ZCCHC8^Pro-(GS)3-eYFP fusion protein (domain or fragment, human, UniProt Q6NZY4 285-324, looked up)
chain: T2 sequence 2
notes: eYFP joined by a Gly-Ser linker serves as the fluorophore of the MST; source: purified; not shown: (GS)3 linker and eYFP, C-terminal, kept
